The source of these data is patent publication US20250197455A1.

Test [1] deals with protein-base BG505 trimer, BG505-RnS7Mutv1-DS-SOSIP-2G-3Mut (HIV-1 (BG505, Clade A)). In words: supernatant ELISA; row BG505-RnS(7MutV1)-2G-3mut-DS_SOSIP-scFc. In general terms: ELISA stands for enzyme-linked immunosorbent assay.
Another test concerns the target BG505 N28 502 660-665. In words: supernatant ELISA; row BG505.RnS7Mut-N28-502-660-665.
In test [2] the target is ConC glycan-base trimer, VRC 7678 (6931_DS-N28-JCBv3-N660-N665.667) (ConC based) (HIV-1 (consensus clade C, ConC)). Description: supernatant ELISA; row scFc-3C-6931-DS-28_JCB04V3-660-665.
Another test deals with BG505 N28 JCBv2 660-665. In words: supernatant ELISA; row BG505.RnS7Mut-N28-JCBv2-660-665.
Test [3] addresses BG505 glycan-base trimer, VRC 7873 (4571_RnS7Mutv1-2G-3Mut-N28-JCBv3-N660-N665.667_613S_620S) (BG505-based) (HIV-1 (BG505, Clade A)). Description: supernatant ELISA; row BG505.RnS7Mut-N28-JCBv3-660-665.
The next test concerns the target BG505 N28 JCBv3 660. Description: supernatant ELISA; row BG505.RnS7Mut-N28-JCBv3-660.
Another test addresses 6931-DS-N28-502-660-665. In words: supernatant ELISA; row scFc-3C-6931-DS-28-502-660-665.
The target in another test is 6931-DS-N28-JCBv3-660. In words: supernatant ELISA; row scFc-3C-6931-DS-28_JCB04V3-660.

As to PGT122 (antibody), the ELISA OD450 (raw) in test [1] turned out to be 1.05 OD450; in the test with BG505 N28 502 660-665 it was 0.864 OD450; in test [2] it was 1.48 OD450; with BG505 N28 JCBv2 660-665, 1 OD450; in test [3], 0.874 OD450; with BG505 N28 JCBv3 660, 0.906 OD450.
Take PGDM1400 (antibody): the ELISA OD450 (raw) came to 0.985 OD450 in test [1]; 0.982 OD450 in the test with BG505 N28 502 660-665; 0.949 OD450 in test [2]; 1.03 OD450 with BG505 N28 JCBv2 660-665; 1.07 OD450 in test [3]; 1.09 OD450 with BG505 N28 JCBv3 660. For the same substance, the results for the ELISA OD450 (raw) in the test with 6931-DS-N28-502-660-665 and with 6931-DS-N28-JCBv3-660 were 0.681 OD450 and 0.861 OD450, respectively.
Regarding 35O22 (antibody), the ELISA OD450 (raw) in test [1] turned out to be 1.01 OD450; in the test with BG505 N28 502 660-665 it was 0.785 OD450; in test [2] it was 0.954 OD450; with BG505 N28 JCBv2 660-665 it was 0.628 OD450; in test [3], 0.632 OD450; in the test with BG505 N28 JCBv3 660, 0.728 OD450. Moreover, the ELISA OD450 (raw) with 6931-DS-N28-502-660-665 is 0.916 OD450.
As for F105 (antibody), the ELISA OD450 (raw) in test [1] came out at 0.134 OD450; with BG505 N28 502 660-665, 0.106 OD450; in the test with BG505 N28 JCBv2 660-665, 0.141 OD450; in test [3], 0.157 OD450; with BG505 N28 JCBv3 660, 0.196 OD450; in the test with 6931-DS-N28-502-660-665, 0.337 OD450. Besides, the ELISA OD450 (raw) with 6931-DS-N28-JCBv3-660 stood at 0.432 OD450.
VRC26.25 (antibody): the ELISA OD450 (raw) in test [1] is 0.71 OD450; in the test with BG505 N28 502 660-665, 0.555 OD450; in test [2] it was 0.798 OD450; in the test with BG505 N28 JCBv2 660-665 it was 0.544 OD450; in test [3], 0.564 OD450; with BG505 N28 JCBv3 660 it was 0.652 OD450. The ELISA OD450 (raw) is 0.874 OD450 in the test with 6931-DS-N28-502-660-665 and 0.979 OD450 with 6931-DS-N28-JCBv3-660.
As for PGT145 (antibody), the ELISA OD450 (raw) in test [1] turned out to be 0.683 OD450; with BG505 N28 502 660-665 it was 0.531 OD450; in test [3] it was 0.219 OD450; with BG505 N28 JCBv3 660, 0.427 OD450; in the test with 6931-DS-N28-502-660-665, 0.938 OD450.
For 3BNC117 (antibody), the ELISA OD450 (raw) in test [1] worked out at 1.04 OD450; in the test with BG505 N28 502 660-665, 0.841 OD450; with BG505 N28 JCBv2 660-665 it was 0.952 OD450; in test [3], 0.981 OD450; with BG505 N28 JCBv3 660, 1.01 OD450; with 6931-DS-N28-502-660-665, 1.03 OD450. The substance also came in with an ELISA OD450 (raw) with 6931-DS-N28-JCBv3-660 of 1.13 OD450.
For the substance VRC34.01 (antibody), the ELISA OD450 (raw) came out at 0.783 OD450 in test [1]; 0.437 OD450 with BG505 N28 502 660-665; 1.05 OD450 in test [2]; 0.729 OD450 with BG505 N28 JCBv2 660-665; 0.682 OD450 in test [3]; 0.648 OD450 with BG505 N28 JCBv3 660. Besides, the ELISA OD450 (raw) with 6931-DS-N28-502-660-665 turned out to be 0.718 OD450; in the test with 6931-DS-N28-JCBv3-660 it was 0.89 OD450.
Turning to N6 (antibody), the ELISA OD450 (raw) came to 0.811 OD450 in test [1]; 0.666 OD450 in the test with BG505 N28 502 660-665; 0.816 OD450 in the test with BG505 N28 JCBv2 660-665; 0.795 OD450 in test [3]; 0.771 OD450 with BG505 N28 JCBv3 660; 0.876 OD450 in the test with 6931-DS-N28-502-660-665. The substance also yielded an ELISA OD450 (raw) with 6931-DS-N28-JCBv3-660 of 0.918 OD450.
